# Reference: article doi:10.1101/2021.02.03.429564
# Experiments:
# [1] = molecular target: full-length recombinant human RAD51 protein, N-terminal 6xHis-tagged (human) (UniProt Q06609); experiment: static light scattering
# [2] = molecular target: full-length recombinant human RAD51 protein, N-terminal 6xHis-tagged (human) (UniProt Q06609); experiment: MST
# [3] = molecular target: full-length recombinant human RAD51 protein, N-terminal 6xHis-tagged (human) (UniProt Q06609)
# [4] = molecular target: T1, full-length recombinant human RAD51 protein, N-terminal 6xHis-tagged (human), Q06609; experiment: static light scattering; settings: remark: other sources report otherwise
# T1 chain: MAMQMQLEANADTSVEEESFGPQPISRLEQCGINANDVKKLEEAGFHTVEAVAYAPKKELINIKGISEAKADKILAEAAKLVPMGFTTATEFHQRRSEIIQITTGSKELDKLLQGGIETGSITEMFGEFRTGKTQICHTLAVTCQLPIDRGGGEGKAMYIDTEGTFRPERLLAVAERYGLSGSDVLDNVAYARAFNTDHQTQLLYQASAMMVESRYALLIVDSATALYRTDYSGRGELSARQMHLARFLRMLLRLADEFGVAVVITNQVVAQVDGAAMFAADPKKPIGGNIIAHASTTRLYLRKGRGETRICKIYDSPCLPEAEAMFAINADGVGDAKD
molecule,measurement,setting,value
BRC4 peptide (fourth BRC repeat of the BRCA2 protein),EC50,[1],4000 to 5000 nM
same,EC50,[2],60 to 80 nM
Myristoylated BRC4 (BRC4-ss-Myr) (peptide),IC50 of inhibition of homologous recombination in BxPC-3 cells,[3],5 µM
"full-length recombinant human RAD51 protein, N-terminal 6xHis-tagged, Q06609 1-339 (natural protein) MAMQMQLEANADTSVEEESFGPQPISRLEQCGINANDVKKLEEAGFHTVEAVAYAPKKELINIKGISEAKADKILAEAAKLVPMGFTTATEFHQRRSEIIQITTGSKELDKLLQGGIETGSITEMFGEFRTGKTQICHTLAVTCQLPIDRGGGEGKAMYIDTEGTFRPERLLAVAERYGLSGSDVLDNVAYARAFNTDHQTQLLYQASAMMVESRYALLIVDSATALYRTDYSGRGELSARQMHLARFLRMLLRLADEFGVAVVITNQVVAQVDGAAMFAADPKKPIGGNIIAHASTTRLYLRKGRGETRICKIYDSPCLPEAEAMFAINADGVGDAKD",stoichiometry N,[4],40 protomers
